What was measured:
[1] = biological target: His-tagged recombinant human FcγRIIIa/CD16a (V158) (human) (UniProt P08637); test: SPR (Biacore T200), His-tagged FcγR captured by anti-His, antibody as analyte, 1:1 kinetic model
[2] = biological target: His-tagged recombinant mouse FcγR4/CD16-2 (mouse); test: as above
[3] = biological target: His-tagged recombinant human FcγRIIa/CD32a (R167) (human) (UniProt P12318); test: as above
[4] = biological target: His-tagged recombinant human FcγRIIb/c/CD32b/c (human) (UniProt P31994); test: as above
Sequence of His-tagged recombinant human FcγRIIb/c/CD32b/c (human) (P31994 46-217 limits assumed): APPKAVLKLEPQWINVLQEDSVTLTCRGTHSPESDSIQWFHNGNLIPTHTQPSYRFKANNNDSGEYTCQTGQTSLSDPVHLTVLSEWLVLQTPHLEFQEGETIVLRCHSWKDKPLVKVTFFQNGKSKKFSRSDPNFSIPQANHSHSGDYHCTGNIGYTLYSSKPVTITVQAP

[5] = biological target: biotinylated human FcRn protein (human) (UniProt P55899); test: SPR (Biacore T200), biotinylated hFcRn captured on CAP chip, antibody as analyte
Sequence of biotinylated human FcRn protein (human) (P55899 24-297 limits assumed, form in doubt, chain 1 of 2): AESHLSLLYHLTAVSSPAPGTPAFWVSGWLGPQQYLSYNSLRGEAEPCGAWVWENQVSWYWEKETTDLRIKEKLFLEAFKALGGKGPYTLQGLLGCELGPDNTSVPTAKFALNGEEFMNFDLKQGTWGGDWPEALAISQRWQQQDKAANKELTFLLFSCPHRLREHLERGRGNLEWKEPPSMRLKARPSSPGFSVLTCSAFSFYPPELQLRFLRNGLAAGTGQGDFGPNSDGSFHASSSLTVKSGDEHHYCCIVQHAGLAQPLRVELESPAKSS
Sequence of biotinylated human FcRn protein (human) (P61769 21-119 limits assumed, form in doubt, chain 2 of 2, further chain): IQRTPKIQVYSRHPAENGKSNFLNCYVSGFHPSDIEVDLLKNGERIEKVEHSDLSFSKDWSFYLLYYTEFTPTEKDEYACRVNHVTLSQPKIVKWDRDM

[6] = biological target: His-tagged recombinant human FcγRI/CD64 (human) (UniProt P12314); test: SPR (Biacore T200), His-tagged FcγR captured by anti-His, antibody as analyte, 1:1 kinetic model
Sequence of His-tagged recombinant human FcγRI/CD64 (human) (P12314 16-288 limits assumed): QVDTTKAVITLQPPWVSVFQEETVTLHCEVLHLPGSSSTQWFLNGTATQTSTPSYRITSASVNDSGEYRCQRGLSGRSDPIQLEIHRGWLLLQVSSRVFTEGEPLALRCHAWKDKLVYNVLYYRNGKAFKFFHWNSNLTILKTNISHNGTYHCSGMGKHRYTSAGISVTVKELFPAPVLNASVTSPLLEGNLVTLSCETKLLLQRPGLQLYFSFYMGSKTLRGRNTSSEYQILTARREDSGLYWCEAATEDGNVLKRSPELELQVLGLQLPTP

Sequence of His-tagged recombinant human FcγRIIIa/CD16a (V158) (human) (P08637 17-208 F176V limits assumed): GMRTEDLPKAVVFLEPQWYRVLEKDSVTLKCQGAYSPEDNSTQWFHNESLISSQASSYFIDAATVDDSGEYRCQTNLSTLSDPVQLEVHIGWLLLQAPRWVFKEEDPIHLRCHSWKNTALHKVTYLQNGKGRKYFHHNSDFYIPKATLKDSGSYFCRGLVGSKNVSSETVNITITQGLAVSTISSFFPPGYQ
Sequence of His-tagged recombinant human FcγRIIa/CD32a (R167) (human) (P12318 36-218 H167R limits assumed): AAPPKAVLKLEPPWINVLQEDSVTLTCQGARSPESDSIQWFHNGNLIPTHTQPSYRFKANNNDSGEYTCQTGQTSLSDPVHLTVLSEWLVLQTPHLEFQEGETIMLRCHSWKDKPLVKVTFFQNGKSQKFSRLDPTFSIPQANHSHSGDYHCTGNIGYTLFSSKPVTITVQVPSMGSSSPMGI

**Q.** For “mab03 (adalimumab Fab, IgG2 Fc-backbone) (antibody)”, which Kd [1] is on record?
**A.** > 10000 nM

**Q.** And the Kd [2]?
**A.** > 10000 nM

**Q.** And the Kd [3]?
**A.** > 5000 nM

**Q.** What about the Kd [4] of the same substance?
**A.** > 10000 nM

**Q.** And the Kd [5]?
**A.** 342 nM

**Q.** With “mab07 (adalimumab Fab, upside-down IgG1 Fc with 19GS-linker between CH1 and CH2) (antibody)” as the substance, how does the Kd [5] read?
**A.** 348 nM

**Q.** For “mab06 (adalimumab Fab, upside-down IgG1 Fc, no linker between CH1 and CH2) (antibody)”, which Kd [5] is on record?
**A.** 528 nM

**Q.** How did the Kd [6] turn out when “mab04 (adalimumab Fab, IgG1 E269R, K322A) (antibody)” was run?
**A.** 6.7 nM

**Q.** And the Kd [1]?
**A.** > 10000 nM

**Q.** What about the Kd [2] of the same substance?
**A.** > 5000 nM

**Q.** And the Kd [5]?
**A.** 357 nM

**Q.** Which Kd [5] does the source give for “mab02 (adalimumab Fab, IgG1 L234A/L235A N297A, aglycosylated) (antibody)” here?
**A.** 263 nM

**Q.** Which results are given for “mab05 (adalimumab Fab, IgG1 L234A/L235A P329A) (antibody)”?
**A.** Kd [6]: > 10000 nM; Kd [5]: 265 nM

**Q.** Which results are given for “mab01 (adalimumab, IgG1 wild-type) (antibody)”?
**A.** Kd [6]: 0.8 nM; Kd [1]: 656 nM; Kd [2]: 827 nM; Kd [3]: 3280 nM; Kd [4]: > 10000 nM; Kd [5]: 361 nM

— US20240043522A1
